From patent US20120164670A1, “METHODS AND KITS FOR MEASURING ENZYME ACTIVITY” (President and Fellows of Harvard College, priority 2009, published 2012)

Substrate: CC(=O)NCCCC[C@H](NC(=O)[C@H](CCCNC(=N)N)NC(=O)[C@H](C)NC(=O)[C@@H](N)[C@@H](C)O)C(=O)N[C@@H](CO)C(=O)N[C@H](C(=O)NCC(=O)O)[C@@H](C)O
Assay: Sirtuin assay kit (PNC1-OPT) with hSIRT1 enzyme
Assay type: biochemical, human
Settings: other: kit protocol, Experiment 2 mastermix; pH 8.0; 37.0 °C
Method: Kit contents are generally stored at −20° C. Modifications or variations in volumes or amounts of components described below are compatible with kits and assays described herein. • 1) Assay Buffer: 2 tubes with 1 mL each of 10× Assay Buffer. Dilute to 1× with ddH20 prior to use. • 2) Non-tagged Peptide Substrate: 1 tube with 140 uL of 5 mM H3K9ac substrate (TARK(ac)STG)) (SEQ ID NO:23). This is a sample substrate only; any substrate may be used in this assay. • 3) β-NAD: a) 1 tube with 450 uL of 10 mM B-NAD, and b) 1 tube with 50 uL of 100 mM B-NAD. In some instances, it is preferable to keep β-NAD in concentrated aliquot form, and dilute it prior to use. • 4) hSIRT1 Enzyme: 1 tube with 400 uL of 1.1 ug/uL full-length human SIRT1 enzyme. • 5) yPNC1 Enzyme: 1 tube with 200 uL of 2 ug/uL yeast PNC1 enzyme • 6) Developing Reagent: 2 vials with 10 mL each 1× Developer (10 mM OPT/10 mM DTT in 100% EtOH). Minimize exposure to light as outlined in the procedure. […]
In some instances, when adding the OPT Developer it is advisable to work in a dark or dimly lit setting. […] Once covered, ambient lighting may be restored. • d) Read the samples. Samples may be transferred to a 96-well plate for reading (do this under dim light). Read the fluorescence on a fluorometer with filters set to excitation ˜420 nm, and emission ˜460 nm. […]

B1: full-length human SIRT1 enzyme (Homo sapiens) (protein)
chain: MADEAALALQPGGSPSAAGADREAASSPAGEPLRKRPRRDGPGLERSPGEPGGAAPEREVPAAARGCPGAAAAALWREAEAEAAAAGGEQEAQATAAAGEGDNGPGLQGPSREPPLADNLYDEDDDDEGEEEEEAAAAAIGYRDNLLFGDEIITNGFHSCESDEEDRASHASSSDWTPRPRIGPYTFVQQHLMIGTDPRTILKDLLPETIPPPELDDMTLWQIVINILSEPPKRKKRKDINTIEDAVKLLQECKKIIVLTGAGVSVSCGIPDFRSRDGIYARLAVDFPDLPDPQAMFDIEYFRKDPRPFFKFAKEIYPGQFQPSLCHKFIALSDKEGKLLRNYTQNIDTLEQVAGIQRIIQCHGSFATASCLICKYKVDCEAVRGDIFNQVVPRCPRCPADEPLAIMKPEIVFFGENLPEQFHRAMKYDKDEVDLLIVIGSSLKVRPVALIPSSIPHEVPQILINREPLPHLHFDVELLGDCDVIINELCHRLGGEYAKLCCNPVKLSEITEKPPRTQKELAYLSELPPTPLHVSEDSSSPERTSPPDSSVIVTLLDQAAKSNDDLDVSESKGCMEEKPQEVQTSRNVESIAEQMENPDLKNVGSSTGEKNERTSVAGTVRKCWPNRVAKEQISRRLDGNQYLFLPPNRYIFHGAEVYSDSEDDVLSSSSCGSNSDSGTCQSPSLEEPMEDESEIEEFYNGLEDEPDVPERAGGAGFGTDGDDQEAINEAISVKQEVTDMNYPSNKS
notes: 1.1 ug/uL full-length human SIRT1 enzyme
Km: 50 µM
